Article PMC10164081
Where no end group is shown, it is not given here.

Columns and labels:
[1] = target: purified Ric-8B (peptide-binding thermal shift assay) (mouse) (UniProt Q80XE1); assay: differential scanning fluorimetry
Gαolf (human) = Gαolf (human) (UniProt P38405)
Chain of Gαolf (human) (P38405 whole entry): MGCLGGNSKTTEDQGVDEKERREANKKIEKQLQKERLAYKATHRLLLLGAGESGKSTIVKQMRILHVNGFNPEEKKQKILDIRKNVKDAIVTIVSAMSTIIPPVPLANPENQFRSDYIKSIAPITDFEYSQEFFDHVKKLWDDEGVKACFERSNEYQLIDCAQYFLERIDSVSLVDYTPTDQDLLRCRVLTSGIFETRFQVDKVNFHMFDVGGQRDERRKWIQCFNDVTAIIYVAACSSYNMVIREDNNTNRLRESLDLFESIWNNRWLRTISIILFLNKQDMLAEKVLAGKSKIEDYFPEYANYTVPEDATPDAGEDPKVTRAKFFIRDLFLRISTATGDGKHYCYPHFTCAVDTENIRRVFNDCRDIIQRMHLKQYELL

maximal thermal shift (ΔTm) [1] [°C]	folding of the Gαolf-RLuc sensor (luminescence) in RIC-8B knockout HEK293T cells (Gαolf (human))	Binder
4.8	–	NDCRDIIQRMHLRQLMLQ-NH2 [Gαs/Gα13 C-term chimera amidated peptide]
–	20 % reduction	Ric-8B F126A (natural protein) MDEERALYIVRAGEAGAIERVLRDYSDKHRATFKFESADEDKRKKLCEGIFKVLVKEVPTTCQVSCLEVLRILSRDKKILVPVTTKENMQILLRLAKLHESDDSLEKVSEFPVIVESLKCLCNIVANSQMAQQLSLELNLAAKLCNLLRKCKDRKFINDIKCFDLRLLFVLSLLHTDIRSQLRYELQGLPLLTQILESAFSIKWTDEYESAIDHNGPPLSPQETDCAIEALKALFNVTVDSWKVHKESDSHQFRVMAAVLRHCLLIVGPTEDKTEELHSNAVNLLSNVPVSCLDVLICPLTHEETAQEAATLDELPSDKTTEKDTALKNSTMVYNGMNMEAIHVLLNFMEKRIDKGSSYREGLTPVLSLLTECSRAHRNIRKFLKDQVLPPLRDVTNRPEVGSTVRNKLVRLMTHVDLGVKQIAAEFLFVLCKERVDSLLKYTGYGNAAGLLAARGLLAGGRGDNWYSEDEDTDTEEYKNAKP
–	59 % decrease	Ric-8B R166A (natural protein) MDEERALYIVRAGEAGAIERVLRDYSDKHRATFKFESADEDKRKKLCEGIFKVLVKEVPTTCQVSCLEVLRILSRDKKILVPVTTKENMQILLRLAKLHESDDSLEKVSEFPVIVESLKCLCNIVFNSQMAQQLSLELNLAAKLCNLLRKCKDRKFINDIKCFDLALLFVLSLLHTDIRSQLRYELQGLPLLTQILESAFSIKWTDEYESAIDHNGPPLSPQETDCAIEALKALFNVTVDSWKVHKESDSHQFRVMAAVLRHCLLIVGPTEDKTEELHSNAVNLLSNVPVSCLDVLICPLTHEETAQEAATLDELPSDKTTEKDTALKNSTMVYNGMNMEAIHVLLNFMEKRIDKGSSYREGLTPVLSLLTECSRAHRNIRKFLKDQVLPPLRDVTNRPEVGSTVRNKLVRLMTHVDLGVKQIAAEFLFVLCKERVDSLLKYTGYGNAAGLLAARGLLAGGRGDNWYSEDEDTDTEEYKNAKP
